Results reported in US20190367620A1.

How the values were obtained:
Human FGF1 (human) = Human FGF1 (human) (UniProt P05230); assay: cell-based or functional assay
Human FGF2 (human) = Human FGF2 (human) (UniProt P09038); assay: cell-based or functional assay
Chain of Human FGF2 (human) (P09038 135-288 limits assumed): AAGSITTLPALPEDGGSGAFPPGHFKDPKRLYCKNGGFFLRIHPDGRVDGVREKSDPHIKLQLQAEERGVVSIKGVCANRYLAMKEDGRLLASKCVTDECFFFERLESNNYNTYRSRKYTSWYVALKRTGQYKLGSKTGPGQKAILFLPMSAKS

Chain of Human FGF1 (human) (P05230 16-155 limits assumed): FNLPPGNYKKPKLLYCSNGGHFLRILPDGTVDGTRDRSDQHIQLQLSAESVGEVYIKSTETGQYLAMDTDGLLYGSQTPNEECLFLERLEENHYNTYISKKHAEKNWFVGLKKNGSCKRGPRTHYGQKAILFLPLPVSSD

- IC50, inhibition of P-FGFR1 in NCI-H520 cells, FGF1 stimulated (Human FGF1 (human)): 0.05 µM
- IC50, inhibition of P-FGFR1 in NCI-H520 cells, FGF2 stimulated (Human FGF2 (human)): 0.03 µM
Substance: FP-1039 (Fc fusion)
